Source: patent US20150344570A1 (published 2015)

T1: FcγRIIb (human, UniProt P31994 43-217)
T1 construct: extracellular domain; Soluble extracellular domain with C-terminal His tag, used as analyte in Biacore; also called FcgRIIb; 2b; not shown: His tag attached to the C terminus
T1 sequence (looked up): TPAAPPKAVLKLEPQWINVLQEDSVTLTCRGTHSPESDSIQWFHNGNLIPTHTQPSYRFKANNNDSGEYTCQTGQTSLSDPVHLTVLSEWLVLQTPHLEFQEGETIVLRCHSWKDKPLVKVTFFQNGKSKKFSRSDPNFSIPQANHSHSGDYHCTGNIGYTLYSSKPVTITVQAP

B1: GpH7-B3 variant P271_02A/GpL16-k0 (antibody, human IgG1, kappa)
heavy: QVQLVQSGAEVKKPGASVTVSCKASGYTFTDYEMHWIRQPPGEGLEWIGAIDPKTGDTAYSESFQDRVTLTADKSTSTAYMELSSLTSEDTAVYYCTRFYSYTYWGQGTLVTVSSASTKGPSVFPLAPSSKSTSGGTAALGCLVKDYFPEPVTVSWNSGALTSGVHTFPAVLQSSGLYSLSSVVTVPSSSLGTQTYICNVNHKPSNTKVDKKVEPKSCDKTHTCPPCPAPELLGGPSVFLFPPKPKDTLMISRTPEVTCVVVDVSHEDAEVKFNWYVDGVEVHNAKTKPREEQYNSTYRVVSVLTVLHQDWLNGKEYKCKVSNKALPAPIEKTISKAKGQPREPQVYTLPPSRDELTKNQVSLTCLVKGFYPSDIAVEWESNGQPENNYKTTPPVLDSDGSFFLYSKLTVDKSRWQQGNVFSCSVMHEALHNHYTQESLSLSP
light: DIVMTQSPLSLPVTPGEPASISCQASESLVHSNRNTYLHWYLQKPGQSPQLLIYKVSNRFSGVPDRFSGSGSGTDFTLKISRVEAEDVGVYYCSQNTHVPPTFGQGTKVEIERTVAAPSVFIFPPSDEQLKSGTASVVCLLNNFYPREAKVQWKVDNALQSGNSQESVTEQDSKDSTYSLSSTLTLSKADYEKHKVYACEVTHQGLSSPVTKSFNRGEC
notes: homodimerized IgG1, mutation in both H chains; also called Ho Ab
B2: GpH7-B3 variant A327_09D/GpL16-k0 (antibody, human IgG1, kappa)
heavy: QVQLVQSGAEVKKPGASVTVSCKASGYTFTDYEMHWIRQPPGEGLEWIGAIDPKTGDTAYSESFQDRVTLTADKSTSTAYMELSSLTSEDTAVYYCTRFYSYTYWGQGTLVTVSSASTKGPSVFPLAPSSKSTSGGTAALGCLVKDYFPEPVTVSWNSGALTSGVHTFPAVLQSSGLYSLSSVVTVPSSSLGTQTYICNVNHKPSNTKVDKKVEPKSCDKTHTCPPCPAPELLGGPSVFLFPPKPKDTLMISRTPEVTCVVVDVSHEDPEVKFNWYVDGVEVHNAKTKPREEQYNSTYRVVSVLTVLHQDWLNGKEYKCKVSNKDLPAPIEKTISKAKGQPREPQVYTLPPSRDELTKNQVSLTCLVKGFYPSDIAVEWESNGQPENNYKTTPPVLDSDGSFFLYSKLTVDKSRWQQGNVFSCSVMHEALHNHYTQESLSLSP
light: B1 light
notes: as for B1
B3: GpH7-B3 variant A330_08L/GpL16-k0 (antibody, human IgG1, kappa)
heavy: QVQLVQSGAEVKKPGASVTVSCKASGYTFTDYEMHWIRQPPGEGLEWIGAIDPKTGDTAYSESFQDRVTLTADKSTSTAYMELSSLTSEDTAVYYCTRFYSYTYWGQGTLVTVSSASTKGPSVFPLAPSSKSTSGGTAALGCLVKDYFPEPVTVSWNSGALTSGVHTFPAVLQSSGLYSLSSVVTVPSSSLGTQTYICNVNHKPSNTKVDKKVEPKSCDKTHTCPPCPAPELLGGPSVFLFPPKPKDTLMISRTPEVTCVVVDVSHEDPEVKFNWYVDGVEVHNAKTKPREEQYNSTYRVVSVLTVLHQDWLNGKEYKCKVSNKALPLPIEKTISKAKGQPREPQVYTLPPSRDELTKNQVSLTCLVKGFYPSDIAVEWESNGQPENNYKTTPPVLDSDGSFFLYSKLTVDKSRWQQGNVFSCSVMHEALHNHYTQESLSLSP
light: B1 light
notes: as for B1
B4: GpH7-B3 variant A330_09D/GpL16-k0 (antibody, human IgG1, kappa)
heavy: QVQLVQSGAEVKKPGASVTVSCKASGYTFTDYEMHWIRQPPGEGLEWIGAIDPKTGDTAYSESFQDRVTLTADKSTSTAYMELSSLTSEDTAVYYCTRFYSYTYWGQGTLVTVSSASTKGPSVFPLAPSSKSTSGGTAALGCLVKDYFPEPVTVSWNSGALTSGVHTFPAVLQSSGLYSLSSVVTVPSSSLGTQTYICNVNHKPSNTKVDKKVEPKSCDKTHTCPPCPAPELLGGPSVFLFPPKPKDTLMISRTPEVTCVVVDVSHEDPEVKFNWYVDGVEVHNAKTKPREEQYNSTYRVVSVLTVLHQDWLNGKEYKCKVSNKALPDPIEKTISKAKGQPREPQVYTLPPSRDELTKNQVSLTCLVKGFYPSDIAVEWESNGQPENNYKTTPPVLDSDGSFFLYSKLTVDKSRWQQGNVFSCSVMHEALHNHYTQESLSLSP
light: B1 light
notes: as for B1
B5: GpH7-B3 variant A330_14T/GpL16-k0 (antibody, human IgG1, kappa)
heavy: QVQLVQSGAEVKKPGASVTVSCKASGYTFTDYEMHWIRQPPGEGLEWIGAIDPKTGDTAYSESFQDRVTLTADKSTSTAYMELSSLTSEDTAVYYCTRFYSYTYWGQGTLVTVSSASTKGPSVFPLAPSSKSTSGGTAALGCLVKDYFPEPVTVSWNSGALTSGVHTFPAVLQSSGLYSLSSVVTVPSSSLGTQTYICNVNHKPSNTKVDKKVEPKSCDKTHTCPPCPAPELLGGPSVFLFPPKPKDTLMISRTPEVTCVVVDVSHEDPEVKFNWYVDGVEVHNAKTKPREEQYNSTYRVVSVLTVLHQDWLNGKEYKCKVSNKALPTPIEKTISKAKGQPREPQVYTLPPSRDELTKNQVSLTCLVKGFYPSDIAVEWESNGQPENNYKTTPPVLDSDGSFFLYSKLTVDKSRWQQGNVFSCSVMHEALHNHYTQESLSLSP
light: B1 light
notes: as for B1
B6: GpH7-B3 variant E269_04F/GpL16-k0 (antibody, human IgG1, kappa)
heavy: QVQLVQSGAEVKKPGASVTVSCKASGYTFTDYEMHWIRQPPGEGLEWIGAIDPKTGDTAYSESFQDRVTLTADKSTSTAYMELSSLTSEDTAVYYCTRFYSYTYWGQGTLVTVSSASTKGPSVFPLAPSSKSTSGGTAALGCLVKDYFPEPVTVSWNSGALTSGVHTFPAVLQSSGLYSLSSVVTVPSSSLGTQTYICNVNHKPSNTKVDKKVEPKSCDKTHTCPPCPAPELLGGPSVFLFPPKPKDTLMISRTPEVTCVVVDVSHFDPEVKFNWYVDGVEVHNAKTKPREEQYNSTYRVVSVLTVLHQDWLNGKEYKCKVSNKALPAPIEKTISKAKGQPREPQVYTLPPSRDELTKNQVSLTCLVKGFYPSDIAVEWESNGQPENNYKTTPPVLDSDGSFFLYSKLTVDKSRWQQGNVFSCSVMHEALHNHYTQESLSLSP
light: B1 light
notes: as for B1
B7: GpH7-B3 variant E269_06M/GpL16-k0 (antibody, human IgG1, kappa)
heavy: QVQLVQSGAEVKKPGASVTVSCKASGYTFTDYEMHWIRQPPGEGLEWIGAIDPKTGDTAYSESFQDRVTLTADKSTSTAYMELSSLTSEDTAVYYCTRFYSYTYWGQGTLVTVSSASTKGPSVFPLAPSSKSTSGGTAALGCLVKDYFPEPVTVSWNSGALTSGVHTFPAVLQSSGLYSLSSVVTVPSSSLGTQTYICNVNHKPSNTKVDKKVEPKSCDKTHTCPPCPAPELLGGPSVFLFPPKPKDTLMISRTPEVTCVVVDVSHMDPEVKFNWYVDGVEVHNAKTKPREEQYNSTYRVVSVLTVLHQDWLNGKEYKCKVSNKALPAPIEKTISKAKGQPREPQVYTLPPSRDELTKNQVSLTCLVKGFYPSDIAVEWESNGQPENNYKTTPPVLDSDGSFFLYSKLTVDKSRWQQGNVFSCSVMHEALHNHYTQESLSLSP
light: B1 light
notes: as for B1
B8: GpH7-B3 variant E269_08L/GpL16-k0 (antibody, human IgG1, kappa)
heavy: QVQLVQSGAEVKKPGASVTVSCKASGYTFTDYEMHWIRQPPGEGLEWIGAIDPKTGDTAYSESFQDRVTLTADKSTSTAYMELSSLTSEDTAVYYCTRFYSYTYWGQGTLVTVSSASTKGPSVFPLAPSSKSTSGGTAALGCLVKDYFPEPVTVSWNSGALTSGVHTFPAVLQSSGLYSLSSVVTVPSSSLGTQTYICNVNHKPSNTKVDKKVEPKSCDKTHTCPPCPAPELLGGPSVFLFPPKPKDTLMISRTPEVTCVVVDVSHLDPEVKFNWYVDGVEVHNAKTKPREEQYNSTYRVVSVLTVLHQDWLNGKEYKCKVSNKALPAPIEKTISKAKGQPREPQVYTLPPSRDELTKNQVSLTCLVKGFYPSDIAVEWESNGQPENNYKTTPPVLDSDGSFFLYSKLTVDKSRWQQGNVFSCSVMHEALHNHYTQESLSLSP
light: B1 light
notes: as for B1
B9: GpH7-B3 variant E269_15Y/GpL16-k0 (antibody, human IgG1, kappa)
heavy: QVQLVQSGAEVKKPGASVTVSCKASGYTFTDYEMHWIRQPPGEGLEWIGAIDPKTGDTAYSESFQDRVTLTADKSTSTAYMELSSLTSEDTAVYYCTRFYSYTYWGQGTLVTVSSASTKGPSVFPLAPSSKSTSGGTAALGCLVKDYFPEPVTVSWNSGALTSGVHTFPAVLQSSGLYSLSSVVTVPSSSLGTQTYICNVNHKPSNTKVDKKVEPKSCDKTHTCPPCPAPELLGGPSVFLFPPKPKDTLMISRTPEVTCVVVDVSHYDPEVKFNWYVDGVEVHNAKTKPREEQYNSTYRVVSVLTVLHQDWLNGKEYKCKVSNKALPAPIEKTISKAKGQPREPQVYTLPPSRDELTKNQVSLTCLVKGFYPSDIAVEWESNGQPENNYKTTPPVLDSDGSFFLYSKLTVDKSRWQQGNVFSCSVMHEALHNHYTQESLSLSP
light: B1 light
notes: as for B1
B10: GpH7-B3 variant E333_01G/GpL16-k0 (antibody, human IgG1, kappa)
heavy: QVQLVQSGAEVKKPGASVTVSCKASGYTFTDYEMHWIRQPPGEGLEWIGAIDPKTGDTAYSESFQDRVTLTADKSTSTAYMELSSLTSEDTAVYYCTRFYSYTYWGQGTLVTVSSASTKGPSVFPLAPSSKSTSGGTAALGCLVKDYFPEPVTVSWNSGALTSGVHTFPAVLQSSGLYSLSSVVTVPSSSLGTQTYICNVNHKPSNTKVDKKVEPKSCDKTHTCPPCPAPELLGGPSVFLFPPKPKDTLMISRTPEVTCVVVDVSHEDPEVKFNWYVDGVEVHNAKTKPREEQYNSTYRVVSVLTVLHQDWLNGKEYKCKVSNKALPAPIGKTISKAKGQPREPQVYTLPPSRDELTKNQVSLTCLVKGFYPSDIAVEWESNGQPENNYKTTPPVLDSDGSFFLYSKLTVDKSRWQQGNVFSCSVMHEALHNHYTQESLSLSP
light: B1 light
notes: as for B1
B11: GpH7-A5/GpH7-B3 variant G236_10E/GpL16-k0 (antibody, human IgG1, kappa)
heavy 1: not shown
heavy 2: not shown
light: B1 light
notes: Heterodimerized anti-glypican-3 IgG1; alteration in the GpH7-B3 chain only; also called He Ab
B12: GpH7-A5/GpH7-B3 variant G237_13S/GpL16-k0 (antibody, human IgG1, kappa)
heavy 1: not shown
heavy 2: not shown
light: B1 light
notes: as for B11
B13: GpH7-A5/GpH7-B3 variant L234_20W/GpL16-k0 (antibody, human IgG1, kappa)
heavy 1: not shown
heavy 2: not shown
light: B1 light
notes: as for B11
B14: GpH7-A5/GpH7-B3 variant L235_04F/GpL16-k0 (antibody, human IgG1, kappa)
heavy 1: not shown
heavy 2: not shown
light: B1 light
notes: as for B11
B15: GpH7-A5/GpH7-B3 variant L328_02A/GpL16-k0 (antibody, human IgG1, kappa)
heavy 1: not shown
heavy 2: not shown
light: B1 light
notes: as for B11
B16: GpH7-A5/GpH7-B3 variant L328_04F/GpL16-k0 (antibody, human IgG1, kappa)
heavy 1: not shown
heavy 2: not shown
light: B1 light
notes: as for B11
B17: GpH7-A5/GpH7-B3 variant L328_06M/GpL16-k0 (antibody, human IgG1, kappa)
heavy 1: not shown
heavy 2: not shown
light: B1 light
notes: as for B11
B18: GpH7-A5/GpH7-B3 variant L328_07I/GpL16-k0 (antibody, human IgG1, kappa)
heavy 1: not shown
heavy 2: not shown
light: B1 light
notes: as for B11
B19: GpH7-A5/GpH7-B3 variant L328_13S/GpL16-k0 (antibody, human IgG1, kappa)
heavy 1: not shown
heavy 2: not shown
light: B1 light
notes: as for B11
B20: GpH7-A5/GpH7-B3 variant N325_01G/GpL16-k0 (antibody, human IgG1, kappa)
heavy 1: not shown
heavy 2: not shown
light: B1 light
notes: as for B11
B21: GpH7-A5/GpH7-B3 variant N325_03V/GpL16-k0 (antibody, human IgG1, kappa)
heavy 1: not shown
heavy 2: not shown
light: B1 light
notes: as for B11
B22: GpH7-A5/GpH7-B3 variant N325_04F/GpL16-k0 (antibody, human IgG1, kappa)
heavy 1: not shown
heavy 2: not shown
light: B1 light
notes: as for B11

molecular target: T2, FcγRIa (human, UniProt P12314 16-292); assay: SPR (Biacore), captured antibody, FcγRIa analyte; relative to HoCon Ab GpH7-B3/GpL16-k0 = 100
T2 construct: extracellular domain; soluble extracellular domain with C-terminal His tag, expressed in FreeStyle293 cells; also called FcgRI; FcgRIa
T2 sequence (P12314 16-292): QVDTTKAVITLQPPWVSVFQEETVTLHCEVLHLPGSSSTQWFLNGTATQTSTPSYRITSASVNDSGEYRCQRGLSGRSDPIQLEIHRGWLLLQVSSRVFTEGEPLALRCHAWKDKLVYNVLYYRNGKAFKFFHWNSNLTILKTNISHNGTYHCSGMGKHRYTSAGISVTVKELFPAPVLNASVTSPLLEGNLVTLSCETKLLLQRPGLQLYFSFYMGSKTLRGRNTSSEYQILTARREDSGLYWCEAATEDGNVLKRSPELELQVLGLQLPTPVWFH

B1 and B2 are the same in Ho/Con_1a: 102 % of control for the first, 102 % of control for the second.

First: B3
Second: B4
The Ho/Con_1a of the first is lower: 106 % of control for the first, 108 % of control for the second.

Going from B5 to B6, the Ho/Con_1a falls from 105 % of control to 102 % of control.

B7 and B8 are the same in Ho/Con_1a: 101 % of control for the first, 101 % of control for the second.

B9 and B10 are the same in Ho/Con_1a: 100 % of control for the first, 100 % of control for the second.

molecular target: T1, FcγRIIb; assay: SPR (Biacore), antibody captured, FcγR as analyte; relative to GpH7-A5/GpH7-B3/GpL16-k0 = 100
Method: (§1) The heterodimerized antibodies He Abs in which one of the H chains was introduced with an alteration were assayed for their binding activities to each activating FcγR and inhibitory FcγR according to the method described in Example 4. […] The activating FcγRs in FIGS. 26, 27, 28, and 29 are FcγRIa, FcγRIIa (R), FcγRIIa (H), and FcγRIIIa, respectively.
(§2) Analysis of interaction between objective antibody and the FcγR was carried out using Biacore T100 (GE Healthcare). HBS-EP+ (GE Healthcare) was used as the running buffer, and the measurement temperature was set to 25° C. Chips produced by immobilizing the antigen peptide by the amine coupling method to a Series S Sencor Chip CM5 (GE Healthcare), or alternatively, chips produced by allowing preliminarily biotinylated antigen peptides to interact with and immobilize onto a Series S Sensor Chip SA (certified) (GE Healthcare) were used. Antibodies of interest were captured onto an antigen peptide-immobilized chip, and allowed to interact to each FcγR diluted with running buffer. To regenerate and repeatedly use the chip, the antibodies captured on the chip were washed off by reacting 10 mM glycine-HCl, pH 1.5.

Compared with B11, B12 is higher in He/Con_2b: 110 % of control (=100) for the first, 111 % of control (=100) for the second.

Compared with B13, B14 is higher in He/Con_2b: 114 % of control (=100) for the first, 118 % of control (=100) for the second.

Going from B15 to B16, the He/Con_2b rises from 144 % of control (=100) to 219 % of control (=100).

Compared with B17, B18 is higher in He/Con_2b: 142 % of control (=100) for the first, 160 % of control (=100) for the second.

Going from B19 to B20, the He/Con_2b falls from 149 % of control (=100) to 101 % of control (=100).

Going from B21 to B22, the He/Con_2b rises from 111 % of control (=100) to 143 % of control (=100).

molecular target: T3, FcγRIa (human, UniProt P12314 16-292); assay: as above
T3 construct: extracellular domain; Soluble extracellular domain with C-terminal His tag, used as analyte in Biacore; also called FcgRI; 1a; not shown: His tag attached to the C terminus
Method: as §1, §2
T3 sequence (P12314 16-292): as above

Going from B11 to B12, the He/Con_1a falls from 93.7 % of control (=100) to 92.2 % of control (=100).

Going from B13 to B14, the He/Con_1a falls from 98.6 % of control (=100) to 97.1 % of control (=100).

Going from B15 to B16, the He/Con_1a falls from 98.5 % of control (=100) to 97.9 % of control (=100).

Compared with B17, B18 is higher in He/Con_1a: 98.7 % of control (=100) for the first, 99.4 % of control (=100) for the second.

Going from B19 to B20, the He/Con_1a falls from 99 % of control (=100) to 97.1 % of control (=100).

Going from B21 to B22, the He/Con_1a falls from 95.6 % of control (=100) to 93.2 % of control (=100).
